Reference: paper PMC9482650, “Quantitative fragmentomics allow affinity mapping of interactomes” (Nature Communications, 2022)

Key:
Assay in all cases: holdup assay
Design in all cases: key: below the threshold = too weak to quantify, mostly under pKd 3.1 to 4
Details in all cases: plain residues with an end cap or a label only (N-terminal biotin on a linker: ttds)
[1] = molecular target: T1, APBA1_2, Q02410
T1 sequence (Q02410 742-832, limits assumed, looked up): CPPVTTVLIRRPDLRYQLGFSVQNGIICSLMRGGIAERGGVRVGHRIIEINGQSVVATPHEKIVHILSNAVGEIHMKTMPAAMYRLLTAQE

[2] = molecular target: T2, APBA2_1, Q99767
T2 sequence (Q99767 563-664, limits assumed, looked up): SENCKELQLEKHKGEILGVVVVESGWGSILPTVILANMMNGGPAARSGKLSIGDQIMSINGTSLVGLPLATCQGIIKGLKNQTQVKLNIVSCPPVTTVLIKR

[3] = molecular target: T3, ARHGAP21, Q5T5U3
T3 sequence (Q5T5U3 45-169, limits assumed, looked up): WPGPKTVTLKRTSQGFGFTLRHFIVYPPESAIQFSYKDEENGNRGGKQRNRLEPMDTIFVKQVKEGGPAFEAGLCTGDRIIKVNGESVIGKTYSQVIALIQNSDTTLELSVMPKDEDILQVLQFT

[4] = molecular target: T4, DFNB31_3, Q9P202
T4 sequence (Q9P202 811-907, limits assumed, looked up): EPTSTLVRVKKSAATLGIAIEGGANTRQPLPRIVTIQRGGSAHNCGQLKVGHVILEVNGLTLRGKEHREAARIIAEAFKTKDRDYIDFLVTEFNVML

[5] = molecular target: DLG2_3, Q15700
[6] = molecular target: T5, DLG3_3, Q92796
T5 sequence (Q92796 374-475, limits assumed, looked up): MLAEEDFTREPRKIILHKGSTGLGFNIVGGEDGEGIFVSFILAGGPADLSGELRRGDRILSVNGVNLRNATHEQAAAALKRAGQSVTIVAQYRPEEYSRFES

[7] = molecular target: DLG5_1, Q8TDM6
[8] = molecular target: FRMPD2_2, Q68DX3
[9] = molecular target: FRMPD3, Q5JV73
[10] = molecular target: T6, GRIP1_4, Q9Y3R0
T6 sequence (Q9Y3R0 467-571, limits assumed, looked up): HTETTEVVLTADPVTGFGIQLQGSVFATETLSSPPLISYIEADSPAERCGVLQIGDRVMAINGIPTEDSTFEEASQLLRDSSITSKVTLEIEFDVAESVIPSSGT

[11] = molecular target: GRIP2_4, Q9C0E4
[12] = molecular target: T7, HTRA3, P83110
T7 sequence (P83110 354-453, limits assumed, looked up): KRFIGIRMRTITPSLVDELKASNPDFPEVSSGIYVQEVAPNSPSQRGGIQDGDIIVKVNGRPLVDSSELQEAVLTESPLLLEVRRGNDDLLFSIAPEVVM

[13] = molecular target: Inadl_10, Q8NI35
[14] = molecular target: Inadl_4, Q8NI35
[15] = molecular target: Inadl_5, Q8NI35
[16] = molecular target: LAP2, Q96RT1
[17] = molecular target: LNX1_3, Q8TBB1
[18] = molecular target: T8, LNX2_2, Q8N448
T8 sequence (Q8N448 334-432, limits assumed, looked up): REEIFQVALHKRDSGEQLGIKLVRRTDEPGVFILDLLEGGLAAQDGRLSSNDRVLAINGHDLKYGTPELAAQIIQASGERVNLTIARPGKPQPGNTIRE

[19] = molecular target: MAGI1_1, Q96QZ7
[20] = molecular target: MAGI2_3, Q86UL8
[21] = molecular target: MAGI2_5, Q86UL8
[22] = molecular target: NHERF2_2, Q15599
[23] = molecular target: T9, PDZRN3_1, Q9UPQ7
T9 sequence (Q9UPQ7 244-349, limits assumed, looked up): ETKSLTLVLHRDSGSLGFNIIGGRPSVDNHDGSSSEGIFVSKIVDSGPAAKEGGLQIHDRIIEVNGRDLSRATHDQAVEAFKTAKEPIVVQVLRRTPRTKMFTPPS

[24] = molecular target: T10, RAPGEF6, Q8TEU7
T10 sequence (Q8TEU7 525-625, limits assumed, looked up): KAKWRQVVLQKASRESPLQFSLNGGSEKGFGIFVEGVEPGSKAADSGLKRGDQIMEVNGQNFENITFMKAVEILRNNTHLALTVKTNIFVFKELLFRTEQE

[25] = molecular target: T11, SNTB1, Q13884
T11 sequence (Q13884 107-205, limits assumed, looked up): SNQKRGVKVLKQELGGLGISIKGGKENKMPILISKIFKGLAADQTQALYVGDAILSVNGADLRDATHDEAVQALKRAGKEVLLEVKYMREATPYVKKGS

[26] = molecular target: TJP1_3, Q07157
TJP1_3, Q07157, sequence (Q07157 416-512): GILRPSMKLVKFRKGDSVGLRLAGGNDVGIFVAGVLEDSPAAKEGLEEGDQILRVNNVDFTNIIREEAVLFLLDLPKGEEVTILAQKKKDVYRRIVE

Inadl_5, Q8NI35, sequence (Q8NI35 673-780): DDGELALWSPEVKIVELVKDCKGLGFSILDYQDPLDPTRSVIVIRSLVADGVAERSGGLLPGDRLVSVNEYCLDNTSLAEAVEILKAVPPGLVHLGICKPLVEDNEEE
Inadl_10, Q8NI35, sequence (Q8NI35 1673-1763): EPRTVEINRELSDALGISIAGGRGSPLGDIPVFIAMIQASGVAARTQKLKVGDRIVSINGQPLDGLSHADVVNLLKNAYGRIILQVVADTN
MAGI2_3, Q86UL8, sequence (Q86UL8 600-682): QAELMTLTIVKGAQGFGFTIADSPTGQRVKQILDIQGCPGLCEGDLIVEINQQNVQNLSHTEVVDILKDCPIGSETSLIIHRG
LNX1_3, Q8TBB1, sequence (Q8TBB1 500-596): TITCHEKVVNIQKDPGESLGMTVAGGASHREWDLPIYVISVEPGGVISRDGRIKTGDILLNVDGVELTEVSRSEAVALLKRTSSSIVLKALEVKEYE
MAGI2_5, Q86UL8, sequence (Q86UL8 915-1017): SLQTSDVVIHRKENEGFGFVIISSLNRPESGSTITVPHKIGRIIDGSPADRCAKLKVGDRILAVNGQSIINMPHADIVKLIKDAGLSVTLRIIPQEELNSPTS
LAP2, Q96RT1, sequence (Q96RT1 other isoform, or with tags, fused parts or gaps): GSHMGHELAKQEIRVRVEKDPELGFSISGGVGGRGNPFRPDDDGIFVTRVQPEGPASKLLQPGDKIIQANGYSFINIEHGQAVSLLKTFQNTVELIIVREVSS
DLG5_1, Q8TDM6, sequence (Q8TDM6 617-713): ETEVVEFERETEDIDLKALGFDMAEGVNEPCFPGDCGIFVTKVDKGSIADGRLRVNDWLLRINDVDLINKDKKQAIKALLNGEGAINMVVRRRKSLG
GRIP2_4, Q9C0E4, sequence (Q9C0E4 446-548): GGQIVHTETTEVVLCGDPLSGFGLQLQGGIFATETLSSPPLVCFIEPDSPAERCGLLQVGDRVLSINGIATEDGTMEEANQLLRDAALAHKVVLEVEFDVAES
FRMPD3, Q5JV73, sequence (Q5JV73 12-100): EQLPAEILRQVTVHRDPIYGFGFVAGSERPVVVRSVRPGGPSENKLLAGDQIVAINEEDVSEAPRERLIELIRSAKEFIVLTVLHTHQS
NHERF2_2, Q15599, sequence (Q15599 142-238): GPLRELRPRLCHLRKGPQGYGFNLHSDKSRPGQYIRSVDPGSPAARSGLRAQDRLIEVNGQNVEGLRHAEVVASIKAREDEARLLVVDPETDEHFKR
FRMPD2_2, Q68DX3, sequence (Q68DX3 944-1038): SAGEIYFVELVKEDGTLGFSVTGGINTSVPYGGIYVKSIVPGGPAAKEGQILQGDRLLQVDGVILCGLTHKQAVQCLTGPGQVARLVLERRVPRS
Inadl_4, Q8NI35, sequence (Q8NI35 547-651): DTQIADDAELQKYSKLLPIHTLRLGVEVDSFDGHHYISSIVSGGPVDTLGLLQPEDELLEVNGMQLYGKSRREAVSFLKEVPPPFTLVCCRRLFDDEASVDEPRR
MAGI1_1, Q96QZ7, sequence (Q96QZ7 1-106): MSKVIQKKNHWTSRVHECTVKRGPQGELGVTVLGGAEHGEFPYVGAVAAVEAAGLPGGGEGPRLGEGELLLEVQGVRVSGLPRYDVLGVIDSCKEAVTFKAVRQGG

| Binder | pKd [1] | pKd [2] | pKd [3] | pKd [4] | pKd [5] | pKd [6] | pKd [7] | pKd [8] | pKd [9] | pKd [10] | pKd [11] | pKd [12] | pKd [13] | pKd [14] | pKd [15] | pKd [16] | pKd [17] | pKd [18] | pKd [19] | pKd [20] | further results |
| --- | --- | --- | --- | --- | --- | --- | --- | --- | --- | --- | --- | --- | --- | --- | --- | --- | --- | --- | --- | --- | --- |
| PKTPPTDTSV [KIR3DL3, Q8N743] | 3.74 | below the threshold | 3.61 | below the threshold | 3.77 | below the threshold | below the threshold | below the threshold | below the threshold | below the threshold | below the threshold | below the threshold | below the threshold | below the threshold | below the threshold | below the threshold | below the threshold | below the threshold | below the threshold | below the threshold | pKd [21]: below the threshold; pKd [22]: below the threshold; pKd [23]: below the threshold; pKd [24]: below the threshold; pKd [25]: below the threshold; pKd [26]: below the threshold |
| TVASEKESVM [SLC1A5, Q15758] | below the threshold | below the threshold | below the threshold | below the threshold | below the threshold | 3.66 | below the threshold | below the threshold | below the threshold | below the threshold | below the threshold | below the threshold | below the threshold | below the threshold | below the threshold | below the threshold | below the threshold | below the threshold | below the threshold | below the threshold | pKd [21]: below the threshold; pKd [22]: 3.51; pKd [23]: 3.61; pKd [24]: below the threshold; pKd [25]: 4.07; pKd [26]: below the threshold |
| VLRLQSETSV [VANGL1, Q8TAA9] | 3.6 | below the threshold | below the threshold | below the threshold | 4.71 | 4.7 | below the threshold | 3.72 | below the threshold | below the threshold | below the threshold | below the threshold | below the threshold | below the threshold | below the threshold | 4.07 | below the threshold | 4.15 | below the threshold | below the threshold | pKd [21]: 4; pKd [22]: 3.75; pKd [23]: 4.4; pKd [24]: below the threshold; pKd [25]: 4.57; pKd [26]: below the threshold |
| SSRTRRETQL [HPV16-E6, P03126] | below the threshold | below the threshold | below the threshold | below the threshold | 5.1 | 4.88 | below the threshold | below the threshold | below the threshold | below the threshold | below the threshold | below the threshold | below the threshold | below the threshold | below the threshold | below the threshold | 3.51 | below the threshold | 3.5 | 3.67 | pKd [21]: 3.93; pKd [22]: 4.19; pKd [23]: 5.66; pKd [24]: 3.66; pKd [25]: 4.92; pKd [26]: below the threshold |
